This passage reports FRET efficiency E, mean CFP donor lifetime T in the presence of the acceptor and Δt (decrease of donor lifetime) results from PMC10909901.

Assay [1] concerns the target AtWRKY22-YFP (Arabidopsis thaliana) (UniProt O04609). Nature of the assay: FRET or BRET. (Bioluminescence resonance energy transfer reports proximity on the nanometre scale.)
The target of assay [2] is RRS1-R-YFP (Arabidopsis thaliana) (UniProt C4B7M5). The assay is described as follows: FRET or BRET.
Sequence of UniProt C4B7M5 (C4B7M5 whole entry): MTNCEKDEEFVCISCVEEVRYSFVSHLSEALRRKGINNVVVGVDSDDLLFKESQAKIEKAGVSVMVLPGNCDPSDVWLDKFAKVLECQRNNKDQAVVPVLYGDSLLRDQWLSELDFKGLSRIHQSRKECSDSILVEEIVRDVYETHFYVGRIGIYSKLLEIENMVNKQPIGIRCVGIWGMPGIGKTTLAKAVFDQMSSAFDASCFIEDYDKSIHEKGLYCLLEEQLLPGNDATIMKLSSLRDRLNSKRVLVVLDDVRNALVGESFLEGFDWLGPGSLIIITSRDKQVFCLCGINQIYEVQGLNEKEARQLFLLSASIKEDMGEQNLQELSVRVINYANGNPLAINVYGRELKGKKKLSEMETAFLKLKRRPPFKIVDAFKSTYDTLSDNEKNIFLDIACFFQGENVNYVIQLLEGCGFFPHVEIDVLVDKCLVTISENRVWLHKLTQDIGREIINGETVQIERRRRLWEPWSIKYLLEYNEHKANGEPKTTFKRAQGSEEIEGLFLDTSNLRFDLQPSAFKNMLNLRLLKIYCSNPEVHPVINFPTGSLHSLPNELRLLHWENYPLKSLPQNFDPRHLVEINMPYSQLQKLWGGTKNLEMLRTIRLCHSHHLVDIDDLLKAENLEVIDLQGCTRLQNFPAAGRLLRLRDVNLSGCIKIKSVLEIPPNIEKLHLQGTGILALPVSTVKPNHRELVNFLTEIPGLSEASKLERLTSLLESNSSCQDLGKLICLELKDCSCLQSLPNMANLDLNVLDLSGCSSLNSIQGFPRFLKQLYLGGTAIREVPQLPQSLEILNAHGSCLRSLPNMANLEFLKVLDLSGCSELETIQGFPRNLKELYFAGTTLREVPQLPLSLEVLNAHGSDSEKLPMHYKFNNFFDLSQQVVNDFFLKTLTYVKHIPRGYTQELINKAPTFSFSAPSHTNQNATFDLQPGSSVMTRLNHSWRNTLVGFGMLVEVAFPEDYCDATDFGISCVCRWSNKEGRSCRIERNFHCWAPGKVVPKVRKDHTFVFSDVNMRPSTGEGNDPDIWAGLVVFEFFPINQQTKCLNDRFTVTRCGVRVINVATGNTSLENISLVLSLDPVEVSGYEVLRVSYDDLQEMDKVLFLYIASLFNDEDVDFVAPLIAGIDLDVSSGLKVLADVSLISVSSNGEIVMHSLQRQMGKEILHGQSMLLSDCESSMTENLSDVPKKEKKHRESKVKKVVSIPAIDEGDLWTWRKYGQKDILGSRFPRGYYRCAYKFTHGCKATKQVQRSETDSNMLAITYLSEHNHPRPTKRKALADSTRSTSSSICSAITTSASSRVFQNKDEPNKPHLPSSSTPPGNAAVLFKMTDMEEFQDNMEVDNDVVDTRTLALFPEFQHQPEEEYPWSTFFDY

Sequence of UniProt O04609 (O04609 whole entry): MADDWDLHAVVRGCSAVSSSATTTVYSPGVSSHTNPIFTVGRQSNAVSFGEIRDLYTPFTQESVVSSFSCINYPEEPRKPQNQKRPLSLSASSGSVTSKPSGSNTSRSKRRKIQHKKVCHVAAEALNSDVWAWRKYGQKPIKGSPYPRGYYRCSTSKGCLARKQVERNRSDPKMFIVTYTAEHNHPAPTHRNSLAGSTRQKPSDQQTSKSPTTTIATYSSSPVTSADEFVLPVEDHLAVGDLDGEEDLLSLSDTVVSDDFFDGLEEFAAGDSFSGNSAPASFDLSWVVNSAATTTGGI

XopJ6_(CN06)-CFP (natural protein): in assay [1], the FRET efficiency E is 9.49%, the mean CFP donor lifetime T in the presence of the acceptor is 3.48 ns and the Δt (decrease of donor lifetime) was found to be 365 ps. In assay [2], the FRET efficiency E turned out to be 15%, the mean CFP donor lifetime T in the presence of the acceptor is 3.27 ns and the Δt (decrease of donor lifetime) was 578 ps.
Regarding XopJ6^C409A-CFP (natural protein), in assay [1], the FRET efficiency E stood at 9.67% and the mean CFP donor lifetime T in the presence of the acceptor was determined as 3.36 ns. In addition, in assay [2], the FRET efficiency E is 12.1%, the mean CFP donor lifetime T in the presence of the acceptor was found to be 3.27 ns and the Δt (decrease of donor lifetime) was found to be 452 ps.
